Experiments:
[1] = target: tetrameric PDGF β-receptor analog (purified from pSDL114+pSDL113 co-transfected cells) (human); assay: saturation binding, analog plated at 12.1 ng/ml on goat anti-human IgG coated wells
[2] = target: tetrameric PDGF β-receptor analog (purified from pSDL114+pSDL113 co-transfected cells) (human); assay: saturation binding, analog plated at 24.3 ng/ml on goat anti-human IgG coated wells
[3] = target: T1, tetrameric PDGF β-receptor analog (purified from pSDL114+pSDL113 co-transfected cells) (human); assay: solid phase radioreceptor competition binding assay, analog plated at 48.6 ng/ml, unlabeled PDGF-BB against 125I-labeled PDGF-BBTyr
T1 heavy: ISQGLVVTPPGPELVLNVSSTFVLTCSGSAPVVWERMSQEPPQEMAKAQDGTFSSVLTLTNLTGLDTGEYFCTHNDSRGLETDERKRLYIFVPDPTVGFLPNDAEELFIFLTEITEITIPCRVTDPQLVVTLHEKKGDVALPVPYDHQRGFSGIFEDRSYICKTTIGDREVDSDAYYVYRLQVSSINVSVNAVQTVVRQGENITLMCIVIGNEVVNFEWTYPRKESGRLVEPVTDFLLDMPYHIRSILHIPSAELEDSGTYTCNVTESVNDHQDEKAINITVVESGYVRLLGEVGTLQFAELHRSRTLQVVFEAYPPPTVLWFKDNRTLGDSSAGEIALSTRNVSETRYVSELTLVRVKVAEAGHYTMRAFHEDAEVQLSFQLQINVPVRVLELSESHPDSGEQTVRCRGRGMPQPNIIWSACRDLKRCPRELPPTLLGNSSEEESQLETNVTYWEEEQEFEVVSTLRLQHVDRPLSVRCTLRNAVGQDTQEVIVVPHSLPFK
T1 light: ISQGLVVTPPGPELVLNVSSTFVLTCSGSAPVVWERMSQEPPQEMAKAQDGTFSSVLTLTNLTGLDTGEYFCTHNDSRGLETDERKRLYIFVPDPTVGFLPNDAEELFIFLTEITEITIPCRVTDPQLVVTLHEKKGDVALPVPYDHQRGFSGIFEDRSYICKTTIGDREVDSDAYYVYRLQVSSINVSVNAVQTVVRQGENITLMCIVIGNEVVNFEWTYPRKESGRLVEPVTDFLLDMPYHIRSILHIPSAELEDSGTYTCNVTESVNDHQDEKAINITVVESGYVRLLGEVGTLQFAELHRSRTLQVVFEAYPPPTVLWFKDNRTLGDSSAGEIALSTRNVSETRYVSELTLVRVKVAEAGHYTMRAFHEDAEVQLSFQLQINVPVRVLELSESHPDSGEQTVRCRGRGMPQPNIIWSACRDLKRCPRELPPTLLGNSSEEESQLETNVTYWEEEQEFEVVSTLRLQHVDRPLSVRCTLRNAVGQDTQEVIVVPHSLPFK
Description: In a solid phase radioreceptor competition binding assay (RRA), the wells of 96-well microtiter plates were coated with 100 μl of 2 μg/ml affinity purified goat anti-human IgG (Cappel Labs) diluted in 0.1 M Na₂HCO₃, pH 9.6. After an eighteen hour incubation at 4° C., the wells were washed once with ELISA C. The wells were blocked by incubation for 2 hours at 37° C. with 175 μl/well ELISA B. […] The unbound receptor was removed, and the test wells were incubated with increasing concentrations of serially diluted, unlabeled PDGF-BB (diluted in binding media. Following a two hour incubation at room temperature, the wells were washed three times with binding media. One hundred microliters of 5 ng/ml ¹²⁵I-labeled PDGF-BBTyr (Example 18.F.) was added to each well, and the plates were incubated for an additional two hours at room temperature. The wells were washed three times with binding media followed by a 5 minute incubation with 100 μl/well of 0.1 M citrate, pH 2.5. The samples were harvested and counted in a gamma counter.

“PDGF-BBTyr (PDGF-BB mutant molecule having a tyrosine replacing the phenylalanine at position 23) (from UniProt P01127) (ligand)” showed a half-maximal binding [1] of 0.8 ng/mL and a half-maximal binding [2] of 0.82 ng/mL.

B1: PDGF-BB (ligand)
chain: SLGSLTIAEPAMIAECKTRTEVFEISRRLIDRTNANFLVWPPCVEVQRCSGCCNNRNVQCRPTQVQLRPVQVRKIEIVRKKPIFKKATVTLEDHLACKCETVAAARPVT
B1 gave an IC50 [3] of 8 ng/mL.

Source: patent publication US20020173621A1, “Method for producing dimerized polypeptide fusions” (ZymoGenetics, Inc., published 2002)
